Values of other authors as cited in publication PMC12593480.

Biological target: IL6 (Homo sapiens) (UniProt P05231)
Sequence of UniProt P05231 (P05231 30-212): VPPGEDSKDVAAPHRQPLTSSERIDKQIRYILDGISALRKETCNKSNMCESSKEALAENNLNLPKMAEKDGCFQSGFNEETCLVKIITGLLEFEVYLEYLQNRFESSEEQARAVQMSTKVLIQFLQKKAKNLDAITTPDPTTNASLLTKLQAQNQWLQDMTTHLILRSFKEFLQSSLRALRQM

Kd: 9 nM
Substance: IL6 receptor alpha (from UniProt P08887)
